# Assay results from US11827911B2, “Chimeric bacteriophage lysin with activity against Staphylococci bacteria” (priority 2008, dated 2023).
# Key:
# MRSA strain COL = test: Checkerboard broth-microdilution assay; format: cell-based, Staphylococcus aureus; conditions: Staphylococcus aureus, read-out: MIC
# From the text: (§1) We used the checkerboard broth-microdilution assay to test the interaction of ClyS with vancomycin and with oxacillin. […] Isobolograms for ClyS with vancomycin and ClyS with oxacillin was plotted by transcribing the enzyme concentrations along the inhibitory line on the microtiter plate in an x/y plot.
# MRSA strain MW2 = test: Systemic MRSA infection model, survival; format: in vivo, FVB/NJ mice; conditions: 100 μg/mouse of oxacillin alone, 10 days
# Method: In order to assess whether ClyS treatment could prevent death resulting from systemic MRSA infections, 4 week old FVB/NJ mice were intraperitoneally injected with ˜5×10^5 CFU of the community-acquired MRSA strain MW2 in 5% mucin. Preliminary experiments determined that 5×10^5 CFU was 10× the LD100 dose for a twenty-four hour period. Furthermore, within 3 hours of IP injection the MRSA infection was systemic. i.e., MRSA were recovered in high numbers from heart, liver, spleen, and kidney (data not shown). Treatment occurred three hours post-infection, with either 20 mM phosphate buffer or 1 mg of ClyS in 20 mM phosphate buffer injected IP (intraperitoneally). Mice were then monitored for survival over ten days. The results from three independent experiments were combined (ClyS treatment, n=16; buffer treatment, n=14) and the mice survival data plotted with a Kaplan Meier Survival curve (FIG. 12), Within twenty-four hours all of the control mice died of bacterial sepsis, while only 2/16 of ClyS treated mice died at forty-eight hours, and the remaining mice (14/16, 88%) survived over the course of the experiments (FIG. 12).
# To determine if this effect could be seen in our systemic MRSA infection model, FVB/NJ mice were intraperitoneally injected with ˜5×10^5 CFUs of the MRSA strain MW2 as above. Three hours post infection mice were treated in parallel, with a lower IP dose of 130 μg/mouse of ClyS combined with different concentrations of oxacillin (10-100 μg/mouse) or buffer alone controls. Preliminary experiments determined that an ED30 dose of ClyS (130 μg/mouse) had minimal efficacy to evaluate the effect of combinatorial treatment with oxacillin (data not shown). Mice were monitored for survival for 10 days and the results of 5 independent experiments were combined and plotted in a Kaplan Meier Survival curve (FIG. 14).
# VISA strain Mu50 = test: Checkerboard broth-microdilution assay; format: cell-based, Staphylococcus aureus; conditions: Staphylococcus aureus, VISA
# From the text: as §1
# staphylococcal strains = conditions: by altering peptide cross-bridges; cited from earlier work
# [1] = Solubility of expressed lysins and chimeras
# Method: In another embodiment, the lysin is a chimeric protein that comprises an endopeptidase domain of the S. aureus Twort lysin upstream of the phiNM3 CWT domain (SEQ ID NO:1). The chimeric polypeptide is preferably sufficiently soluble in phosphate buffered saline (PBS). Preferred levels of solubility in PBS for the chimeric lysins is at least about 1 mg/ml and more preferably at least about 3 mg/mL. in PBS. […] One example of such a lysin is provided in SEQ ID NO:2 (AD127), shown in FIG. 5A and consisting of the Twort lysin endopeptidase domain attached to the phiNM3 CWT domain (SEQ ID NO:1). The isolated polypeptide of SEQ ID NO:2 (AD 127) was constructed by engineering S. epidermidis autolysin amidase and Twort lysin endopeptidase domains upstream of phiNM3 CWT domain, respectively.
# Traditionally, Bacillus-specific lysins are expressed at high levels and are soluble in E. coli. Therefore, our first attempt was to engineer a 16-amino acid peptide (4) that is conserved in several S. aureus-specific lysins (Lu J Z, Fujiwara T, Komatsuzawa H, Sugai M, Sakon J. 2006. Cell wall-targeting domain of glycylglycine endopeptidase distinguishes among peptidoglycan cross-bridges. (Lue et al. (2006) J. Biol. Chem. 281(1):549-58) The catalytic domain of the Bacillus-specific lysin PlyB was used to generate chimera AD 103 (FIG. 4) (SEQ ID NO: 13). The chimeras were tested for expression, solubility and activity. Then the entire C-terminal CWT domain of PlyB (6) was replaced by the putative C-terminal domain of S. aureus phage Twort lysin (8) to obtain AD 105 (SEQ ID NO: 14). […] Since the lysostaphin catalytic domain […] (10) in AD 112 was of bacterial origin, we attempted to engineer a phage-derived catalytic domain upstream of the lysostaphin CWT. For this, the endopeptidase domain in Twort lysin (14) was used to construct chimera AD 119 (SEQ ID NO:3).
# S. aureus = test: Lytic assays of chimeric lysins against S. aureus; format: cell-based, Staphylococcus aureus; conditions: for lytic/killing activity against S. aureus: qualitative
# From the text: For this, the endopeptidase domain in Twort lysin (14) was used to construct chimera AD 119 (SEQ ID NO:3). […] To overcome low expression of AD 127 construct, the entire chimera gene was cloned into expression vector pJML6 to generate pAD 138.
Molecule,solubility of the expressed protein [1],lytic/killing activity against S. aureus (S. aureus),other results
"Cc1onc(-c2ccccc2)c1C(=O)N[C@@H]1C(=O)N2[C@@H]1SC(C)(C)[C@@H]2C(=O)O [oxacillin, reference compound]",–,–,MIC (MRSA strain COL): 32 µg/mL; survival (MRSA strain MW2): 35%
"CN[C@H](CC(C)C)C(=O)N[C@H]1C(=O)N[C@@H](CC(N)=O)C(=O)N[C@H]2C(=O)N[C@H]3C(=O)N[C@H](C(=O)N[C@H](C(=O)O)c4cc(O)cc(O)c4-c4cc3ccc4O)[C@H](O)c3ccc(c(Cl)c3)Oc3cc2cc(c3O[C@@H]2O[C@H](CO)[C@@H](O)[C@H](O)[C@H]2O[C@H]2C[C@](C)(N)[C@H](O)[C@H](C)O2)Oc2ccc(cc2Cl)[C@H]1O [vancomycin, reference compound]",–,–,MIC (VISA strain Mu50): 8 µg/mL
lysostaphin: staphylolytic enzyme produced by Staphylococcus simulans,–,–,frequency of developing resistance (staphylococcal strains): 10^−6
"AD 112: S. epidermidis autolysin amidase domain upstream of the lysostaphin CWT domain (protein, Chimeric of Staphylococcus epidermidis autolysin amidase domain and Staphylococcus simulans metalloendopeptidase Lysostaphin CWT domain) MVSSQKTSSLPKYTPKVNSSINNYIRKKNMKAPRIEEDYTSYFPKYGYRNGVGRPEGIVVHDTANDNSTIDGEIAFMKRNYTNAFVHAFVDGNRIIETAPTDYLSWGAGPYGNQRFINVEIVHTHDYDSFARSMNNYADYAATQLQYYNLKPDSAENDGRGTVWTHAAISNFLGGTDHADPHQYLRSHNYSYAELYDLIYEKYLIKTKQVAPWGTTSTKPSQPSKPSGGTNNKLTVSANRGVAQIKPTNNGLYTTVYDSKGHKTDQVQKTLSVTKTATLGNNKFYLVEDYNSGKKYGWVKQGDVVYNTAKAPVKVNQTYNVKAGSTLYTVPWGTPKQVASKVSGTGNQTFKATKQQQIDKATYLYGTVNGKSGWISKYYLTTASKPSNPTKPSTNNQLTVAGQTIHYDEVMKQDGHTNNSGVAQINAKNSGLYTTVYDTKGKTTNQIQRTLSVTKAATLGDKKFYLVGDYNTGTNYGWVKQDEVIYNTAKSPVKINQTYNVKPGVKLHTVPWGTYNQVAGTVSGKGDQTFKATKQQQIDKATYLYGTVNGKSGWISKYYLLQTPNTGWKTNKYGTLYKSESASFTPNTDIITRTTGPFRSMPQSGVLKVWVGYTGNSGQRIYLPVRTWNKSTNTLGVLWGTIK",very soluble,no lytic activity,effect on S. aureus cells when exposed (S. aureus): clumped
"AD 119: Twort lysin endopeptidase domain upstream of the lysostaphin CWT domain (protein, Chimeric of Staphylococcus aureus bacteriophage Twort domain and Staphylococcus simulans metalloendopeptidase Lysostaphin CWT domain) METLKQAESYIKSKVNTGTDFDGLYGYQCMDLAVDYIYHVTDGKIRMWGNAKDAINNSFGGTATVYKNYPAFRPKYGDVVVWTTGNFATYGHIAIVTNPDPYGDLQYVTVLEQNWNGNGIYKTELATIRTHDYTGITHFIRPNFATESSVKKKDTKKKPKPSNRDGLNKDKIVYDRTNINYNMVLQTPNTGWKTNKYGTLYKSESASFTPNTDIITRTTGPFRSMPQSGVLKAGQTIHYDEVMKQDGHVWVGYTGNSGQRIYLPVRTWNKSTNTLGVLWGTIK",soluble,did not show significant activity,–
"AD 126: S. epidermidis autolysin amidase domain upstream of phiNM3 CWT domain (protein, Chimeric of Staphylococcus epidermidis autolysin amidase domain and Staphylococcus aureus phage pniNM3 CWT domain) MVSSQKTSSLPKYTPKVNSSINNYIRKKNMKAPRIEEDYTSYFPKYGYRNGVGRPEGIVVHDTANDNSTIDGEIAFMKRNYTNAFVHAFVDGNRIIETAPTDYLSWGAGPYGNQRFINVEIVHTHDYDSFARSMNNYADYAATQLQYYNLKPDSAENDGRGTVWTHAAISNFLGGTDHADPHQYLRSHNYSYAELYDLIYEKYLIKTKQVAPWGTTSTKPSQPSKPSGGTNNKLTVSANRGVAQIKPTNNGLYTTVYDSKGHKTDQVQKTLSVTKTATLGNNKFYLVEDYNSGKKYGWVKQGDVVYNTAKAPVKVNQTYNVKAGSTLYTVPWGTPKQVASKVSGTGNQTFKATKQQQIDKATYLYGTVNGKSGWISKYYLTTASKPSNPTKPSTNNQLTVTNNSGVAQINAKNSGLYTTVYDTKGKTTNQIQRTLSVTKAATLGDKKFYLVGDYNTGTNYGWVKQDEVIYNTAKSPVKINQTYNVKPGVKLHTVPWGTYNQVAGTVSGKGDQTFKATKQQQIDKATYLYGTVNGKSGWISKYYLLQGLMNKITNKVKPPAQKAVGKSASKITVGSKAPYNLKWSKGAYFNAKIDGLGATSATRYGDNRTNYRFDVGQAVYAPGTLIYVFEIIDGWCRIYWNNHNEWIWHERLIVKEVF",–,no expression or activity,–
"AD 107: lysostaphin CWT domain downstream of PlyB-catalytic domain (protein, Chimeric of Bacillus-specific phage lysin PlyB catalytic domain and Staphylococcus simulans metalloendopeptidase Lysostaphin CWT domain) MGYIVDMSKWNGSPDWDTAKGQLDLVIARVQDGSNYVDPVYKDYVAAMKARNIPFGSYAFCRFVSVEDAKVEARDFWNRGDKDSLFWVADVEVTTMSDMRAGTQAFIDELYRLGAKKVGLYVGHHKYEEFGAAQIKCDFTWIPRYGAKPAYPCDLWQYDEYGQVPGIGKCDLNRLNGDKSLDWFTGKGEEAVQLQTPNTGWKTNKYGTLYKSESASFTPNTDIITRTTGPFRSMPQSGVLKAGQTIHYDEVMKQDGHVWVGYTGNSGQRIYLPVRTWNKSTNTLGVLWGTIK",poor,no activity,–
"AD 105: PlyB with its C-terminal CWT domain replaced by the putative C-terminal domain of S. aureus phage Twort lysin (protein, Cimeric of Bacillus-specific phage lysin PlyB catalytic domain and Staphylococcus aureus bacteriophage Twort domain) MGYIVDMSKWNGSPDWDTAKGQLDLVIARVQDGSNYVDPVYKDYVAAMKARNIPFGSYAFCRFVSVEDAKVEARDFWNRGDKDSLFWVADVEVTTMSDMRAGTQAFIDELYRLGAKKVGLYVGHHKYEEFGAAQIKCDFTWIPRYGAKPAYPCDLWQYDEYGQVPGIGKCDLNRLNGDKSLDWFTGKGEEAVQWNVNNYGTYYKSESATFKCTARQGIVTRYTGPFTTCPQAGVLYYGQSVTYDTVCKQDGYVWISWTTNGGQDVWMPVRTWDKNTDIMGQLWGDIY",–,not active,–
